Laboratory results: the supplement of paper PMC7125110
± gives the standard error. Fewer inactive variants are shown than the library holds.

B1: glmS ribozyme (parent)
chain: AUAAAAGCGCCAGAACUACAGAAAUGUAGUUGACGAGGAGGAGGUUUAUCGAAUUUUCGGCGGAUGCCUCCAAA

Variants of: B1
Assay: self-cleavage kobs at 10000 uM GlcN6P; higher = faster cleavage; RNA array
Settings: with glucosamine-6-phosphate
How it was run: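 Barcoded glmS ribozyme variants on sequenced MiSeq chips were transcribed in situ by E. coli RNA polymerase and tracked through a hybridised Cy3 probe at 37 °C. Glucosamine-6-phosphate (40 μM to 10 mM) in HEPES/KCl/Mg(OAc)2 buffer was flowed in, and tiles were imaged over ~14 h. Signals were normalised to baseline and to non-cleaving reference variants; per-tile medians were fit to one- or two-exponential decays to give kobs. kcat and KM came from weighted Michaelis–Menten fits across concentrations.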

Variant	self-cleavage kobs at 10000 uM GlcN6P [s⁻¹]
A28G A52U A53G	9e-05 ± 1.6e-05
G13C A15C U49C	< 1e-05
U30C A36G U54A	< 1e-05
A36C U47G U65G	< 1e-05
G29A A33C G41C C70U	< 1e-05
G13U U54G C67U	0.000238 ± 4.9e-05
C16U U31G C70A	8.19e-05 ± 1.7e-05
G35U U45G C67G	< 1e-05
C11U G38U A42G	< 1e-05
C11G G38U G41A C68G	< 1e-05
U30G U46C G51U C71U	< 1e-05
G13U A39U C71U	0.000606 ± 0.00012
A12U C16A U65C	5.77e-05 ± 1.6e-05
G7A C8U U56C	< 1e-05
A39C G40U G59C C70U	< 1e-05
G7A U57C	< 1e-05
G7A G29U G37C	< 1e-05
A12G G13U G40A	4.65e-05 ± 1.4e-05
A48G A52G C71G	< 1e-05
A33G U47A C70U	< 1e-05
A15C A33G A48C A64U	< 1e-05
C10A U45A A52U	< 1e-05
C16A A33C A42C C71U	< 1e-05
A12C A15U C58G	0.00016 ± 3.5e-05

Variant	self-cleavage kobs at 10000 uM GlcN6P [s⁻¹]
G44C U55C U57C G59U	< 1e-05
A14G C16U A39U	0.0817 ± 0.036
C8A A36U C61G G66A	< 1e-05
A6U A33G G43C G60U	< 1e-05
C10U C34A G41U	< 1e-05
C16G G32U C58U	0.000423 ± 0.00013
C11U A12U U46G C70U	0.000953 ± 0.00017
C11G U30A G59C	0.000168 ± 3.9e-05
A12C G41A C67A	7.76e-05 ± 2.9e-05
G9U U30A U56G	< 1e-05
G37U G38A U45G G51A	< 1e-05
G7C G9U G41A C50U C71G	< 1e-05
U30C G32A G66A	0.001 ± 0.00026
A15G G66U C70A	8.77e-05 ± 1.7e-05
C11U A12G C50U	< 1e-05
C11A U47C U55A G59U	0.00336 ± 0.00065
A39C U57A C58G G63U	< 1e-05
A33U C50G C61A C70U	6e-05 ± 1.8e-05
C16U A39C A53G	0.00494 ± 0.0011
G13A G35A G60U C70A	< 1e-05
G35C U45A C58G	< 1e-05
C16A U31A C70U	0.00113 ± 0.00026
A36C U46G U49G	0.000106 ± 2.7e-05
U31A A33U G35U G38U	< 1e-05

Variant	self-cleavage kobs at 10000 uM GlcN6P [s⁻¹]
G7A C16U	2.32e-05 ± 1.2e-05
G43A U46A G59C	< 1e-05
U30G U49G G63C	< 1e-05
A15G A42U U69A	0.00624 ± 0.0018
G7A A33G C68U C70G	5.57e-05 ± 2e-05
G29C U69C C71U	4.54e-05 ± 2.1e-05
A15G G35A U57G G62A	< 1e-05
U30G A42G G62U	< 1e-05
C10U A39C C61U C68G	< 1e-05
C50U A53U G62A	< 1e-05
A6G C11U C34A	< 1e-05
A36C U54C G60U C61A G62U	< 1e-05
A12U A64U C67U	0.00017 ± 3e-05
C11A U47G	5.18e-05 ± 1.5e-05
A14U U30C G38C	< 1e-05
C16A U45G A64G	0.000258 ± 5.1e-05
G38C A53C C67U	< 1e-05
U47A A53U C68G	4.16e-05 ± 1.7e-05
C11U G29U C70A	8.25e-05 ± 2.8e-05
A14U A15C G32A A42U A53U C70U	< 1e-05
A33G A48C C50U C70G	< 1e-05
G37U G38A G51U	< 1e-05
C10U C58U G59C	< 1e-05
G43U G62A	< 1e-05

Variant	self-cleavage kobs at 10000 uM GlcN6P [s⁻¹]
G29C U45A C68U	0.000376 ± 0.00011
A6U A15G G43A C68G	< 1e-05
G7A A64G C67U C70G	< 1e-05
G13A G37A	4.89e-05 ± 1.1e-05
G29A C34G C67A	< 1e-05
C34A C67G C70A	< 1e-05
U47G U55C C67A	0.000309 ± 4.9e-05
C11G A64C C67G	< 1e-05
A12C G37A U47G	0.000241 ± 4.8e-05
G37C G63U	< 1e-05
A6C G37A C68A	< 1e-05
A12U C50G A52C C70G	7.94e-05 ± 2.3e-05
G13C G29U G66A C71U	3.46e-05 ± 1.2e-05
C16A G35C A39U	< 1e-05
A6C A14G A64G	0.000191 ± 3.2e-05
G7C A14U C67U C68G	< 1e-05
A12G G21U A53U U69A	0.0001 ± 2.2e-05
C8G A14U A52C G59C C71U	< 1e-05
A15U C16U G29U C67A	0.00151 ± 0.00034
C16G A42G C71U	0.00126 ± 0.00039
A14C U65C C71U	4.99e-05 ± 2.1e-05
